Assay results as given in patent US20100261182A1.

T1: 5-TAMRA-MpTPpYV-NH2 substrate peptide (bis-phosphorylated)
T1 chain: MTPYV

B1: His-PPM1E (PPM1E phosphatase with an N-terminal His-tag, expressed in Sf9 cells) (protein)
chain: MAGCIPEEKTYRRFLELFLGEFRGPCGGGEPEPEPEPEPEPEPESEPEPEPELVEAEAAEASVEEPGEEAATVAATEEGDQEQDPEPEEEAAVEGEEEEEGAATAAAAPGHSAVPPPPPQLPPLPPLPRPLSERITREEVEGESLDLCLQQLYKYNCPSFLAAALARATSDEVLQSDLSAHYIPKETDGTEGTVEIETVKLARSVFSKLHEICCSWVKDFPLRRRPQLYYETSIHAIKNMRRKMEDKHVCIPDFNMLFNLEDQEEQAYFAVFDGHGGVDAAIYASIHLHVNLVRQEMFPHDPAEALCRAFRVTDERFVQKAARESLRCGTTGVVTFIRGNMLHVAWVGDSQVMLVRKGQAVELMKPHKPDREDEKQRIEALGGCVVWFGAWRVNGSLSVSRAIGDAEHKPYICGDADSASTVLDGTEDYLILACDGFYDTVNPDEAVKVVSDHLKENNGDSSMVAHKLVASARDAGSSDNITVIVVFLRDMNKAVNVSEESDWTENSFQGGQEDGGDDKENHGECKRPWPQHQCSAPADLGYDGRVDSFTDRTSLSPGSQINVLEDPGYLDLTQIEASKPHSAQFLLPVEMFGPGAPKKANLINELMMEKKSVQSSLPEWSGAGEFPTAFNLGSTGEQIYRMQSLSPVCSGLENEQFKSPGNRVSRLSHLRHHYSKKWHRFRFNPKFYSFLSAQEPSHKIGTSLSSLTGSGKRNRIRSSLPWRQNSWKGYSENMRKLRKTHDIPCPDLPWSYKIE
B2: Full length PPM1E (SEQ ID NO: 1) overexpressed in H4 neuroglioma cells and rat hippocampal primary neurons (protein)
chain: MAGCIPEEKTYRRFLELFLGEFRGPCGGGEPEPEPEPEPEPEPESEPEPEPELVEAEAAEASVEEPGEEAATVAATEEGDQEQDPEPEEEAAVEGEEEEEGAATAAAAPGHSAVPPPPPQLPPLPPLPRPLSERITREEVEGESLDLCLQQLYKYNCPSFLAAALARATSDEVLQSDLSAHYIPKETDGTEGTVEIETVKLARSVFSKLHEICCSWVKDFPLRRRPQLYYETSIHAIKNMRRKMEDKHVCIPDFNMLFNLEDQEEQAYFAVFDGHGGVDAAIYASIHLHVNLVRQEMFPHDPAEALCRAFRVTDERFVQKAARESLRCGTTGVVTFIRGNMLHVAWVGDSQVMLVRKGQAVELMKPHKPDREDEKQRIEALGGCVVWFGAWRVNGSLSVSRAIGDAEHKPYICGDADSASTVLDGTEDYLILACDGFYDTVNPDEAVKVVSDHLKENNGDSSMVAHKLVASARDAGSSDNITVIVVFLRDMNKAVNVSEESDWTENSFQGGQEDGGDDKENHGECKRPWPQHQCSAPADLGYDGRVDSFTDRTSLSPGSQINVLEDPGYLDLTQIEASKPHSAQFLLPVEMFGPGAPKKANLINELMMEKKSVQSSLPEWSGAGEFPTAFNLGSTGEQIYRMQSLSPVCSGLENEQFKSPGNRVSRLSHLRHHYSKKWHRFRFNPKFYSFLSAQEPSHKIGTSLSSLTGSGKRNRIRSSLPWRQNSWKGYSENMRKLRKTHDIPCPDLPWSYKIE

What was measured:
[1] = target: 5-TAMRA-MpTPpYV-NH2 substrate peptide (bis-phosphorylated); assay: cell-based or functional assay
[2] = target: T1, 5-TAMRA-MpTPpYV-NH2 substrate peptide …
[3] = target: CaMKII alpha isoform (about 50 kDa), phosphorylated at Thr286
[4] = target: CaMKII beta isoform (about 57 kDa), phosphorylated at Thr286

Binder	IC50 (EC50) of the PPM1E titration, decrease of polarization [1] [nM]	polarization at a concentration of PPM1E of 33 nM [2]	polarization at a concentration of PPM1E of 0.8 µM [2]	dephosphorylation of pCaMKII alpha band (western blot) [3]	phosphorylation of CaMKII relative to wildtype HC neurons (western blot) [3]	dephosphorylation of pCaMKII beta band (western blot) [4]	phosphorylation of CaMKII relative to wildtype HC neurons (western blot) [4]
B1	160	a polarization of about 147 mP (milli-Polarization) was measured	the polarization decreased to about 123 mP	–	–	–	–
B2	–	–	–	PPM1E phosphatase is dephosphorylating the beta isoform (57 kDa) as well as the alpha isoform (50 kDa) of CaMKII	the phosphorylation of CaMKII is decreasing to 50% of the phosphorylation status of wildtype cells by increasing the level of PPM1E expression 12 times	PPM1E phosphatase is dephosphorylating the beta isoform (57 kDa) as well as the alpha isoform (50 kDa) of CaMKII	the phosphorylation of CaMKII is decreasing to 50% of the phosphorylation status of wildtype cells by increasing the level of PPM1E expression 12 times
